The record followed here is patent US20240343806A1 (EUCURE BEIJING BIOPHARMA, published 2024).

Residue numbers refer to the chain shown, from its start.

Assay [1] deals with T1, mouse CTLA4 (mouse, UniProt P09793 36-223).
T1 construct: Expressed on transfected CHO cells; also called mCTLA4
Description: flow cytometry on CHO-mCTLA4 cells; SSC vs Anti-Human-IgGFc-FITC. As for the experimental part: 25 ul CHO cells were added to each well.
After being washed with PBS (1200 rmp, 5 min) twice, 50 ul of anti-human IgG Fc antibody fluorescein isothiocyanate conjugate (IgG Fc-FITC) was added at 1:100 dilution into each well and was incubated at 4° C. for 30 minutes, followed by PBS wash. The signals for FITC were determined by flow cytometry.
Background: A flow cytometer gives signals particle by particle.

Assay [2] concerns the target T1, mouse CTLA4. As to the kind of experiment: flow cytometry on CHO-mCTLA4 cells; SSC vs Anti-mouse-IgGFc-FITC.

T1 sequence (P09793 36-223 S182T limits assumed): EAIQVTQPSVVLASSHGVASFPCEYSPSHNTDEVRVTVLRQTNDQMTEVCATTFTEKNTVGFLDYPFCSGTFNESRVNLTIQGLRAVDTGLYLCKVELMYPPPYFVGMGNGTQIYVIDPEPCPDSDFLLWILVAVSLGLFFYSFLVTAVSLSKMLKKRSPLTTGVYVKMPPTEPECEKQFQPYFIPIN

B1: CT4-04-13A4-mHvKv-IgG1 (antibody, V domains shown)
VH: QVQLQQSGAELVRPGASVTLSCKASGYTFTDYEMHWVKQTPVHGLEWIGVIDPETGGTAYNQKFKGKATLTADRSSSTAYMELRSLTSEDSAVYYCTRGTTVVGLDYWGQGTTLTVSS
VL: DIQMTQSPASLSASVGESVTITCRASGNIHNYLAWYQQKQGKSPQLLVYKEKTLTDTVPSRFSGSGSGTQFSLKINSLQPEDFGSYYCQHFWSTPWTFGGGTNLEIK
For the molecule B1, the binding result with mouse CTLA4 [1] is recorded as “no binding (tested: 1 ug/ml)”.

B2: CT4-20-6D2 (antibody, V domains shown)
VH: QVQLQQSGAELVRPGASVTLSCKASGYTFTDYEMHWVKQTPVHGLEWIGTIDPETGGTAYNQKFKGKATLTTDKSSSTAYMELRSLTSEDSAVYYCTRRGKYGNYDYVMDYWGQGTSVTVSS
VL: B1 VL with S18T, Y49F, K50N, E51A, T55A, T57G, F71Y, S85N, N103K
notes: Mouse monoclonal antibody purified from ascites fluid
B2: in the assay with mouse CTLA4 [2], the binding result is “no binding (tested: 1 ug/ml)”.

B3: CT4-20-7E12 (antibody, V domains shown)
VH: EVKLDETGGGLVQPGRPMKLSCVASGFTFSDYWMNWVRQSPEKGLEWVAQIRNKPYNYETHYSDSVKGRFTISRDDSKSSVYLQMNNLRGEDMGIYYCTGTFAYWGQGTLVTVSA
VL: DIQMTQSPTSLSASVGETVTITCGTSENIYGGLNWYQRKQGKSPQLLIYGATNLADGMSSRFSGSGSGRQYSLKISSLHPDDVATYYCQNVLSTPYTFGGGTKLEIK
notes: as for B2
B3: the binding result in the assay with mouse CTLA4 [2] is “no binding (tested: 1 ug/ml)”.

B4: CT4-03-4G12-mHvKv-IgG1 (antibody, V domains shown)
VH: DVKLVESGGGLVKPGGSLKLSCTASGFTFSSYTMSWVRQTPEKRLEWVATISRGGGYTSYPDSVKGRFTISRDNAKNTLYLQMSSLQSEDTAMYYCARDDYGSSYVHWFAYWGQGTLVTVSA
VL: DIQMTQSPASLSASVGETVTITCRAGENIYSYLAWYQQKQGKSPQLLVYNARTLAEGVPSRFSGSGSGTQFSLKINSLQPEDFGSYYCQHHYGSPRTFGGGTKLEIK
Regarding B4, the binding result with mouse CTLA4 [1] was “no binding (tested: 1 ug/ml)”.
